T1: recombinant HLA-DQ2.5/33mer gliadin peptide complex (human; wheat)
T1 construct: also called soluble HLA-DQ2.5/33mer gliadin peptide complex
T1 alpha: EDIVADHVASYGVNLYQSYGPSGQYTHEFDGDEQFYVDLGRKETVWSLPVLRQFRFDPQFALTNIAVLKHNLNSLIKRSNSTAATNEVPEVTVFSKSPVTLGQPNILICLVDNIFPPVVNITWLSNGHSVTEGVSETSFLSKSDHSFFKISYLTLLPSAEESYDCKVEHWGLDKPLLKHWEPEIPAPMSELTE
T1 beta: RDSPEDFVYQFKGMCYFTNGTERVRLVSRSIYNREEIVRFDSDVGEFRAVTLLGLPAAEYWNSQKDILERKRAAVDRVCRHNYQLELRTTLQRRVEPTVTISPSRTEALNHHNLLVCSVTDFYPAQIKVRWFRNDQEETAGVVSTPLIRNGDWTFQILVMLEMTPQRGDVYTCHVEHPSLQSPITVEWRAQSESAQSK
T1 peptide: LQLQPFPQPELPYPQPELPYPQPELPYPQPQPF


What was measured:
[1] = target: T2, HLA-DQ2.5/33mer gliadin peptide complex on Ba/F3 cells (human; wheat); assay: FACS
T2 construct: also called Ba/F3-HLA-DQ2.5/33mer gliadin peptide; HLA-DQ2.5/gliadin peptide complex

[2] = target: T3, HLA-DQ2.5/CLIP peptide complex on Ba/F3 cells (human); assay: FACS
T3 construct: also called Ba/F3-HLA-DQ2.5/CLIP peptide

[3] = target: T4, HLA-DQ2.5/alpha 1b gliadin peptide complex on Ba/F3 cells (human; wheat); assay: FACS
T4 construct: also called Ba/F3-HLA-DQ2.5/alpha 1b gliadin peptide

[4] = target: T5, HLA-DQ2.5/alpha 2 gliadin peptide complex on Ba/F3 cells (human; wheat); assay: FACS
T5 construct: also called Ba/F3-HLA-DQ2.5/alpha 2 gliadin peptide

[5] = target: T6, HLA-DQ2.5/omega 1 gliadin peptide complex on Ba/F3 cells (human; wheat); assay: FACS
T6 construct: also called Ba/F3-HLA-DQ2.5/omega 1 gliadin peptide

[6] = target: T7, HLA-DQ2.5/omega 2 gliadin peptide complex on Ba/F3 cells (human; wheat); assay: FACS
T7 construct: also called Ba/F3-HLA-DQ2.5/omega 2 gliadin peptide

[7] = target: T8, HLA-DQ2.5/secalin 1 peptide complex on Ba/F3 cells (human; rye); assay: FACS
T8 construct: also called Ba/F3-HLA-DQ2.5/secalin 1 peptide

[8] = target: T9, HLA-DQ2.5/secalin 2 peptide complex on Ba/F3 cells (human; rye); assay: FACS
T9 construct: also called Ba/F3-HLA-DQ2.5/secalin 2 peptide

[9] = target: T10, HLA-DQ2.5/alpha 1 gliadin peptide complex on Ba/F3 cells (human; wheat); assay: FACS
T10 construct: also called Ba/F3-HLA-DQ2.5/alpha 1 gliadin peptide

[10] = target: T2, HLA-DQ2.5/33mer gliadin peptide complex …; assay: cell-based or functional assay
[11] = target: T1, recombinant HLA-DQ2.5/33mer gliadin …; assay: SPR, Ab captured, 37 C, pH 7.4

Row | Binder | FIG. 30 FACS value (IC17=0, DQN0139bb=100) [1] | FIG. 30 FACS value (IC17=0, DQN0139bb=100) [2] | FIG. 30 FACS value (IC17=0, DQN0139bb=100) [3] | FIG. 30 FACS value (IC17=0, DQN0139bb=100) [4] | FIG. 30 FACS value (IC17=0, DQN0139bb=100) [5] | FIG. 30 FACS value (IC17=0, DQN0139bb=100) [6] | FIG. 30 FACS value (IC17=0, DQN0139bb=100) [7] | FIG. 30 FACS value (IC17=0, DQN0139bb=100) [8] | FIG. 30 FACS value (IC17=0, DQN0139bb=100) [9] | IC50 (read off the curve) [10] [µg/mL] | Kd [11] [nM]
1 | DQN0333hh (antibody, human IgG1, kappa, V domains shown, also called DQN0333Lh) VH: QSVEESGGRLVMPGGSLTLTCTASGFSLSSYYMNWVRQAPGKGLEWIGVIYSTDITDYATWATGRFTISKTSTTVDLKMTSLTAADTATYFCARELSPTTSGYIAYLWGPGTLVTVSS VL: AYDMTQTPASVEVAVGGTVTIKCQASQSISSYLAWYQQKPGQPPKLLIYSASTLASGVPSRFKGSGSGTQFTLTVIDVQCDDAATYYCQQTYSGKNVINTFGGGTKVEIKR | 106 | 116 | 108 | 118 | 106 | 128 | 110 | 106 |  |  | 
2 | DQN0344xx (antibody, human IgG1, kappa, V domains shown, also called DQN0344Hx; DQN0344Lx) VH: QSLEESGGGLVKPGGTLTLTCTASGFSFSSSYWMCWVRQAPGKGLEWVACVYGGSDTTYYASWTKGRFTISKGSSTTVALQVTSLTAADTATYFCARDPLNYYYYGELNLWGPGTLVTVSS VL: AVVLTQTASPVSAAVGGTVTIRCQATENIYSGLAWYQQKPGQPPKVLIYYVSTLASGVPSRFKGSGSGTEYTLTISGVQCDDAATYYCQTYHDISNVTFGGGTKVEIKR | 106 |  | 75.3 | 81.9 | 68.8 | 3.7 | 73.9 | 60.6 | 89.7 | ~0.3 | 
3 | DQN0370hh (antibody, human IgG1, kappa, V domains shown, also called DQN0370Lh) VH: QSLEESGGGLVKPGGPLTLTCTASGFSFSSAYYMCWVRQAPGKGLEWIACIYVGSGSTYYTSWAKGRFTISKVSSTTMTLQMTSLTAADTATYFCARDPLIYYYYGELNLWGPGTLVTVSS VL: AVVLTQTASPVSAPVGGTVTIKCQASEDIYSNLAWYQQKPGQRPKVLIYSASTLASGVSSRFKGSRSGTEYTLSITDLGCADAATYYCQAYYDIGGVTFGGGTKVEIKR | 107 | 1 | 79.2 | 83.7 | 73.7 | 65.8 | 79.2 | 68.1 | 91.2 | ~0.3 | 4.47
4 | DQN0303hh (antibody, human IgG1, kappa, V domains shown, also called DQN0303Lh) VH: QQHLEESGGGLVKPGGTLTLTCTASGIDFSSYYYMCWVRQAPGKGLEWIACIYTGDGSTYYASWVNGRFTISRSTSLNTVTLQLNGLAAADTATYFCARSYGASSAIGYFNLWGPGTLVTVSS VL: DVVMTQTPSSKSAAVGGTVTIKCQASQNIYSNLAWYQQKPGQRPKLLIYEASTLASGVPSRFRGSGSGTEFTLTISDLECDDAATYYCQNYYYTSSNDFYTFGGGTKVEIKR | 72.8 | 80 | 41.5 | 62.6 | 56.2 | 91.7 | 64.5 | 59.4 | 51.4 |  | 

From patent publication US20230118024A1 (Chugai, published 2023)
